Assay results taken from patent publication US20260207704A1, “STAPLED PEPTIDES AND METHODS THEREOF” (priority 2022, published 2026).
*1 amine or outer side, *2 acyl side, *3 side chain or, on linkers, in order; H or OH if unused. Bridges are numbered along the chain shown (N, C = ends). Primed or numbered codes have the meaning given here. [ ]: non-standard residue; d: D form. B5(4) = 2-amino-2-(pent-4-en-1-yl)hept-6-enoic acid, stapled through each of its two olefin groups with other olefin-containing amino acid residues, O=C(C(CCCC=[*:3])(CCCC=[*:4])N[*:1])[*:2]; PyrS2″ = (S)-3-amino-1-((pent-4-en-1-yloxy)carbonyl)pyrrolidine-3-carboxylic acid (olefin stapling residue), C=CCCCOC(=O)N1CC[C@@](N[*:1])(C(=O)[*:2])C1; PyrS2(3) = (S)-3-amino-1-((pent-4-en-1-yloxy)carbonyl)pyrrolidine-3-carboxylic acid, olefin residue, C=CCCCOC(=O)N1CC[C@@](N[*:1])(C(=O)[*:2])C1; PyrS2(5) = (S)-3-amino-1-((pent-4-en-1-yloxy)carbonyl)pyrrolidine-3-carboxylic acid, C=CCCCOC(=O)N1CC[C@@](N[*:1])(C(=O)[*:2])C1; B5″ = 2-amino-2-(pent-4-en-1-yl)hept-6-enoic acid (bis-olefin stapling residue), C=CCCCC(CCCC=C)(N[*:1])C(=O)[*:2]; B5(5) = 2-amino-2-(pent-4-en-1-yl)hept-6-enoic acid (two olefin arms), C=CCCCC(CCCC=C)(N[*:1])C(=O)[*:2]; B5(3) = 2-amino-2-(pent-4-en-1-yl)hept-6-enoic acid, two olefin arms, C=CCCCC(CCCC=C)(N[*:1])C(=O)[*:2]; 2F3MeF(3) = aromatic amino acid residue, Cc1cccc(C[C@H](N[*:1])C(=O)[*:2])c1F; 2F3MeF″ = aromatic residue, Cc1cccc(C[C@H](N[*:1])C(=O)[*:2])c1F; Phe(3-COOH) = N[C@@H](Cc1cccc(C(=O)O)c1)C(=O)O; 2F3MeF = Cc1cccc(C[C@H](N[*:1])C(=O)[*:2])c1F; Bta = N[C@@H](Cc1csc2ccccc12)C(=O)O; αAllylPro = C=CC[C@@]1(C(=O)O)CCCN1; BztA = aromatic amino acid residue; tBuAla = CC(C)(C)C[C@H](N)C(=O)O; 3Thi = N[C@@H](Cc1ccsc1)C(=O)O; Cha = N[C@@H](CC1CCCCC1)C(=O)O; Thr(ol) = C[C@@H](O)[C@H](N)CO; PyrS2(4) = not defined here; Nle = CCCC[C@H](N)C(=O)O; TfeGA = not defined here; AsnR = not defined here; GlnR = not defined here; PL3 = not defined here; B5 = not defined here; Aib = CC(C)(N)C(=O)O

Experiments:
[1] = molecular target: beta-catenin (human); assay: cell-based or functional assay
[2] = molecular target: beta-catenin (human); assay: fluorescence polarization

beta-catenin (human), sequence (B6V8E6 146-665 limits assumed): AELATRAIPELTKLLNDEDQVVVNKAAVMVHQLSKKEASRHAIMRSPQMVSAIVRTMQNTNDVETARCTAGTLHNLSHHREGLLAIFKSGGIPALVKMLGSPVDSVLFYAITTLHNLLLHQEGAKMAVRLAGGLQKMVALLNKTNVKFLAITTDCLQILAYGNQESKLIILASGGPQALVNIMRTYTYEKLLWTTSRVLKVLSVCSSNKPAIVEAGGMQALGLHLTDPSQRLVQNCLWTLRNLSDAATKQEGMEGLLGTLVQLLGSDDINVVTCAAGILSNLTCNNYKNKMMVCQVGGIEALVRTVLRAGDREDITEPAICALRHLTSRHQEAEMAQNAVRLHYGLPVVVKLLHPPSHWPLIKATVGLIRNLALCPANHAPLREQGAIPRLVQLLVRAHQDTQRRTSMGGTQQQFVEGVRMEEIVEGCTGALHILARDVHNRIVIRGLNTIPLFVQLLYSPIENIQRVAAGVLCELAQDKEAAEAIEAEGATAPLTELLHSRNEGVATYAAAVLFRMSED

Binder | NanoBRET Abs IC50 (bin >3.0 uM) [1] [nM] | IC50 [2] [nM] | NanoBRET Abs IC50 (bin >1.5 uM) [1] [nM] | NanoBRET Abs IC50 [1] [nM]
Ac-[PL3]D[Cha][B5]D[Phe(3-COOH)]AAFK[PyrS2″][2F3MeF(3)][BztA][GlnR]A-NH2 (staple 1-4 (inferred); bridge 10-14; not fully specified (residue 10, bridges); printed as Ac-PL3-Asp-Cha-B5-Asp-3COOHF-Ala-Ala-Phe-Lys*3-PyrS2-2F3MeF-BztA-GlnR*3-Ala-NH2; reading uncertain; also: Lys10 and GlnR14 marked *3) [I-97] | – | < 50 | < 3000 | –
Ac-[αAllylPro]D[tBuAla][B5(3)]D[Phe(3-COOH)]QAFK[PyrS2(3)][2F3MeF″][Bta][GlnR]A-NH2 (bridge 10-14; not fully specified (bridges); printed as Ac-PL3-Asp-Npg-B5-Asp-3COOHF-Gln-Ala-Phe-Lys*3-PyrS2-2F3MeF-BztA-GlnR*3-Ala-NH2; reading uncertain) [I-60] | < 10000 | < 50 | – | –
Ac-[αAllylPro]D[tBuAla][B5(3)]D[Phe(3-COOH)]QAFK[PyrS2(3)][2F3MeF″][Bta][AsnR]A-NH2 (bridge 10-14; not fully specified (bridges); printed as Ac-PL3-Asp-Npg-B5-Asp-3COOHF-Gln-Ala-Phe-Lys*3-PyrS2-2F3MeF-BztA-AsnR*3-Ala-NH2; reading uncertain) [I-61] | – | < 50 | – | > 10000
Ac-[αAllylPro]D[tBuAla][B5(3)]D[Phe(3-COOH)]TAFK[PyrS2(3)][3Thi][Bta][GlnR]A-NH2 (bridge 10-14; not fully specified (bridges); printed as Ac-PL3-Asp-Npg-B5-Asp-3COOHF-Thr-Ala-Phe-Lys*3-PyrS2-3Thi-BztA-GlnR*3-Ala-NH2; reading uncertain) [I-72] | – | < 50 | < 3000 | –
Ac-[αAllylPro]D[tBuAla][B5(3)]D[Phe(3-COOH)]AAFK[PyrS2(3)][3Thi][Bta][GlnR]-Prool (bridge 10-14; not fully specified (bridges); printed as Ac-PL3-Asp-Npg-B5-Asp-3COOHF-Ala-Ala-Phe-Lys*3-PyrS2-3Thi-BztA-GlnR*3-Prool; reading uncertain) [I-64] | – | < 50 | < 3000 | –
Ac-[αAllylPro]D[tBuAla][B5(3)]D[Phe(3-COOH)]AAFK[PyrS2(3)][2F3MeF″][Bta][GlnR]-NH2 (bridge 10-14; not fully specified (bridges); printed as Ac-PL3-Asp-Npg-B5-Asp-3COOHF-Ala-Ala-Phe-Lys*3-PyrS2-2F3MeF-BztA-GlnR*3-NH2; reading uncertain) [I-55] | – | < 50 | < 3000 | –
XDXXDXTAFKXXXQA (not fully specified; Ac-PL3-Asp-Npg-B5-Asp-3COOHF-Thr-Ala-Phe-Lys*3-PyrS2-2F3MeF-BztA-GlnR*3-Ala-NH2) [I-73] | – | < 50 | < 3000 | –
Ac-[αAllylPro]D[tBuAla][B5(5)]D[Phe(3-COOH)]AAF[GlnR][PyrS2(5)][3Thi][Bta]KA-NH2 (bridge 10-14; reading uncertain; also: PL3/B5/PyrS2 staple links not placed, printed as Ac-PL3-Asp-Npg-B5-Asp-3COOHF-Ala-Ala-Phe-GlnR*3-PyrS2-3Thi-BztA-Lys*3-Ala-NH2) [I-43] | – | < 50 | < 3000 | –
Ac-[αAllylPro]D[tBuAla][B5(4)]D[TfeGA][Aib]AFK[PyrS2(5)][2F3MeF][Bta][GlnR]A-NH2 (bridge 10-14; not fully specified (bridges); reading uncertain; also: Lys*3 and GlnR*3 marked *3) [I-121] | – | < 50 | < 3000 | –

Second part, the binder after the results:

NanoBRET Abs IC50 (bin >3.0 uM) [1] [nM] | IC50 [2] [nM] | NanoBRET Abs IC50 (bin >1.5 uM) [1] [nM] | NanoBRET Abs IC50 [1] [nM] | Binder
< 10000 | < 50 | – | – | Ac-[αAllylPro]D[tBuAla][B5(3)]D[Phe(3-COOH)]AAFK[PyrS2(3)][2F3MeF″][Bta][AsnR]-NH2 (bridge 10-14; not fully specified (bridges); printed as Ac-PL3-Asp-Npg-B5-Asp-3COOHF-Ala-Ala-Phe-Lys*3-PyrS2-2F3MeF-BztA-AsnR*3-NH2; reading uncertain) [I-56]
– | < 50 | < 3000 | – | Ac-[αAllylPro]D[tBuAla][B5(3)]D[Phe(3-COOH)][Aib]AFK[PyrS2(3)][2F3MeF″][Bta][GlnR]A-NH2 (bridge 10-14; not fully specified (bridges); printed as Ac-PL3-Asp-Npg-B5-Asp-3COOHF-Aib-Ala-Phe-Lys*3-PyrS2-2F3MeF-BztA-GlnR*3-Ala-NH2; reading uncertain) [I-68]
< 10000 | < 50 | – | – | Ac-[αAllylPro]D[tBuAla][B5(3)]D[Phe(3-COOH)]AAFK[PyrS2(3)][3Thi][Bta][GlnR][Thr(ol)] (bridge 10-14; not fully specified (bridges); printed as Ac-PL3-Asp-Npg-B5-Asp-3COOHF-Ala-Ala-Phe-Lys*3-PyrS2-3Thi-BztA-GlnR*3-Throl; reading uncertain) [I-62]
– | < 50 | – | > 10000 | Ac-[PL3]DL[B5]DDAAFK[PyrS2(4)][3Thi][Bta][GlnR]-NH2 (staple 1-4; bridge 10-14; not fully specified (residue 10); printed as Ac-PL3-Asp-Leu-B5-Asp-Asp-Ala-Ala-Phe-dLys*3-PyrS2-3Thi-BztA-GlnR*3-NH2; reading uncertain; also: PyrS2 tied into a staple, partner not placed) [I-1]
– | < 50 | < 3000 | – | Ac-[PL3]D[tBuAla][B5]D[Phe(3-COOH)][Cha]AFK[PyrS2(4)][2F3MeF][Bta][GlnR]A-NH2 (staple 1-4; bridge 10-14; not fully specified (residue 10); printed as Ac-PL3-Asp-Npg-B5-Asp-3COOHF-Cha-Ala-Phe-Lys*3-PyrS2-2F3MeF-BztA-GlnR*3-Ala-NH2; reading uncertain; also: PyrS2 tied into a staple, partner not placed) [I-101]
– | < 50 | < 3000 | – | Ac-[PL3]D[Cha][B5]D[Phe(3-COOH)]AAFK[PyrS2(4)][2F3MeF][Bta][GlnR]L-NH2 (staple 1-4; bridge 10-14; not fully specified (residue 10); printed as Ac-PL3-Asp-Cha-B5-Asp-3COOHF-Ala-Ala-Phe-Lys*3-PyrS2-2F3MeF-BztA-GlnR*3-Leu-NH2; reading uncertain; also: PyrS2 tied into a staple, partner not placed) [I-106]
– | < 50 | < 3000 | – | Ac-[PL3]D[tBuAla][B5]D[Phe(3-COOH)]AAFK[PyrS2(4)][2F3MeF][Bta][GlnR]L-NH2 (staple 1-4; bridge 10-14; not fully specified (residue 10); printed as Ac-PL3-Asp-Npg-B5-Asp-3COOHF-Ala-Ala-Phe-Lys*3-PyrS2-2F3MeF-BztA-GlnR*3-Leu-NH2; reading uncertain; also: PyrS2 tied into a staple, partner not placed) [I-104]
– | < 50 | < 3000 | – | Ac-[αAllylPro]D[tBuAla][B5(3)]D[Phe(3-COOH)][Nle]AFK[PyrS2(3)][2F3MeF″][Bta][GlnR]A-NH2 (bridge 10-14; not fully specified (bridges); printed as Ac-PL3-Asp-Npg-B5-Asp-3COOHF-nLeu-Ala-Phe-Lys*3-PyrS2-2F3MeF-BztA-GlnR*3-Ala-NH2; reading uncertain) [I-71]
– | < 50 | < 3000 | – | Ac-[αAllylPro]D[tBuAla][B5(3)]D[Phe(3-COOH)]AAFK[PyrS2(3)][2F3MeF″][Bta][GlnR]A-NH2 (bridge 10-14; not fully specified (bridges); printed as Ac-PL3-Asp-Npg-B5-Asp-3COOHF-Ala-Ala-Phe-Lys*3-PyrS2-2F3MeF-BztA-GlnR*3-Ala-NH2; reading uncertain) [I-57]
– | < 50 | < 3000 | – | Ac-[αAllylPro]D[tBuAla][B5″]D[TfeGA][Aib]AFK[PyrS2″][2F3MeF][Bta][GlnR]A-NH2 (bridge 10-14; not fully specified (bridges); reading uncertain; also: Lys*3 and GlnR*3 marked *3) [I-120]
< 10000 | < 50 | – | – | Ac-[αAllylPro]D[tBuAla][B5(3)]D[Phe(3-COOH)]AAFK[PyrS2(3)][3Thi][Bta][GlnR][Thr(ol)] (bridge 10-14; not fully specified (bridges); printed as Ac-PL3-Asp-Npg-B5-Asp-3COOHF-Ala-Ala-Phe-Lys*3-PyrS2-3Thi-BztA-GlnR*3-Throl; reading uncertain) [I-63]
